# According to patent publication US20260174880:
# Biological target: cytosolically localized BRD4 (lacks NLS), O60885
protein,measurement,value
"BTK-FLAG (Bruton's Tyrosine Kinase, FLAG-tagged, expressed in HEK293T cells and treated with BTK-BRD4 PHICS) (protein) MAAVILESIFLKRSQQKKKTSPLNFKKRLFLLTVHKLSYYEYDFERGRRGSKKGSIDVEKITCVETVVPEKNPPPERQIPRRGEESSEMEQISIIERFPYPFQVVYDEGPLYVFSPTEELRKRWIHQLKNVIRYNSDLVQKYHPCFWIDGQYLCCSQTAKNAMGCQILENRNGSLKPGSSHRKTKKPLPPTPEEDQILKKPLPPEPAAAPVSTSELKKVVALYDYMPMNANDLQLRKGDEYFILEESNLPWWRARDKNGQEGYIPSNYVTEAEDSIEMYEWYSKHMTRSQAEQLLKQEGKEGGFIVRDSSKAGKYTVSVFAKSTGDPQGVIRHYVVCSTPQSQYYLAEKHLFSTIPELINYHQHNSAGLISRLKYPVSQQNKNAPSTAGLGYGSWEIDPKDLTFLKELGTGQFGVVKYGKWRGQYDVAIKMIKEGSMSEDEFIEEAKVMMNLSHEKLVQLYGVCTKQRPIFIITEYMANGCLLNYLREMRHRFQTQQLLEMCKDVCEAMEYLESKQFLHRDLAARNCLVNDQGVVKVSDFGLSRYVLDDEYTSSVGSKFPVRWSPPEVLMYSKFSSKSDIWAFGVLMWEIYSLGKMPYERFTNSETAEHIAQGLRLYRPHLASEKVYTIMYSCWHEKADERPTFKILLSNILDVMDEES",BRD4 phosphorylation (pBRD4 immunoblot) [panel B],clear pBRD4 band in lane PHICS; no visible band in lanes DMSO and iPHICS; total BRD4 alike in all lanes
same,BRD4 phosphorylation (pBRD4 immunoblot) [panel C],strongest pBRD4 band in lane PHICS; weak bands in lanes DMSO and iPHICS; total BRD4 alike in all lanes
same,BRD4 phosphorylation (pBRD4 immunoblot) [panel F],clear pBRD4 band in lane 5; barely visible signal in lanes DMSO and 6; total BRD4 alike in all lanes
same,BRD4 phosphorylation (pBRD4 immunoblot) [panel G],clear pBRD4 band in lane 7; no visible band in lanes DMSO and 8; total BRD4 alike in all lanes
